The results in this text go back to US20050003420, “Recycled mutagenesis of restriction endonuclease toward enhanced catalytic activity” (published 2005).

One series has as its target T1, BsoBI D246N D246N (UniProt P70985).
T1 sequence: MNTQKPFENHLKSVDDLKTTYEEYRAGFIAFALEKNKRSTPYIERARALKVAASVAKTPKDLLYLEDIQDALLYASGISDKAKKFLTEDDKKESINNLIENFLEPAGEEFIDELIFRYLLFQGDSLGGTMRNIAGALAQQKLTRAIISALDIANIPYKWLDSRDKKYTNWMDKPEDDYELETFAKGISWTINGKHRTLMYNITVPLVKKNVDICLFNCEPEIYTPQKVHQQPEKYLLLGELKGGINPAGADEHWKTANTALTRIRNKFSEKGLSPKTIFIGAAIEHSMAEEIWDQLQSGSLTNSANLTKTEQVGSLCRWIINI
Kind of series: cleavage_in_vitro. To be noted: cell extract.

The target in a further series is T2, BsoBI D246Q D246Q (UniProt P70985).
T2 sequence: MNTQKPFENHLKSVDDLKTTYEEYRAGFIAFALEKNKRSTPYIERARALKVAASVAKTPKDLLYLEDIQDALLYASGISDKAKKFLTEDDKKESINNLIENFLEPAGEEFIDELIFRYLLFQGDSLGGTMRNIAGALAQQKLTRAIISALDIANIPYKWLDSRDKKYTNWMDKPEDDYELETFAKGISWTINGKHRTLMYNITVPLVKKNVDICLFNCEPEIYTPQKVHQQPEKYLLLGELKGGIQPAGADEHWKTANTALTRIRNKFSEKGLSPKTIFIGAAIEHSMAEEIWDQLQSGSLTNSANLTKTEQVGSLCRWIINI
In words: cleavage_in_vitro. Particulars: cell extract.

In a further series the target is T3, BsoBI D246E D246E (UniProt P70985).
T3 sequence: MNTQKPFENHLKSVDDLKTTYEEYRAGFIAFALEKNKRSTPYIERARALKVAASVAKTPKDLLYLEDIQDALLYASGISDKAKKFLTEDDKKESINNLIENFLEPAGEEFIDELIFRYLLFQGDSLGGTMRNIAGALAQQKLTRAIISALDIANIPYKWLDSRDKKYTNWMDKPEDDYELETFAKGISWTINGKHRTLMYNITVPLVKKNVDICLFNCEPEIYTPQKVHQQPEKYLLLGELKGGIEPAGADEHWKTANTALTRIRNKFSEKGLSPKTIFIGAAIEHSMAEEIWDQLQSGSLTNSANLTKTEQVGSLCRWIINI
Kind of series: cleavage_in_vitro. Particulars: lambda or pUC19; purified D246E also lacked measurable cleavage.

The target of series [1] is BsoBI pseudorevertant 6c E46V/D61E/S94T/D246A (UniProt P70985). Kind of series: cleavage_in_vitro. Particulars: pUC19, 65 C.
The target in another series is T4, PvuII E18K/K93R/R105H (UniProt P23657 P23657:1-157, E18K/K93R/R105H).
T4 sequence: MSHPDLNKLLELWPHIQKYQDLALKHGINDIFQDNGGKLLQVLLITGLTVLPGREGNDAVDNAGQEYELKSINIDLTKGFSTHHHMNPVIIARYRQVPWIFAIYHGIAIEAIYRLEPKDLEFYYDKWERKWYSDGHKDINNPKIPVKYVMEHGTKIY
In words: cleavage_in_vitro; NEB buffer 2, 37 C, 1.5 h. Particulars: tags: His-tag; chain copies: 2 inferred. From the text:
(§1) In order to test the cleavage specificity of the mutant endonucleases, two substrates were designed such that a limited number of sites related to the PvuII cognate sequence were present. A 1042 bp DNA substrate, corresponding to bases 317-1359 of the pUC19 sequence (GenBank #L09137), was amplified from pUC19. This substrate contains a unique PvuII site 631 bp from one end. A second, 1270 bp DNA substrate was amplified from the region corresponding to bases 6010-7280 of pTYB1 (New England Biolabs, Beverly, Mass.). This substrate contains a unique MfeI site 1022 bp from one end, and a unique PmlI site 810 bp from the same end. These substrates were used to determine the substrate specificity of PvuII (K93R) and its variants K93R/R105H, K93R/V50A and E18K/K93R/R105H. PvuII restriction digestion was assayed in NEB buffer 2 at 37° C. for 1.5 hour (New England Biolabs, Inc., Beverly, Mass.). […] The amount of protein required to cleave the MfeI/PmlI substrate at the MfeI site is >10 μg for the K93R mutant, 0.1 μg for K93R/105H, for 0.1 μg K93R/V50A, and 0.03 μg for K93R/R105H/E18K. The amount of protein required to cleave the MfeI/PmlI substrate at the PmlI site is >10 μg for the K93R mutant, 3 μg for K93R/105H, 3 μg for K93R/V50A, and 3 μg for K93R/R105H/E18K. Cleavage of the MfeI or PmlI sites by the wild-type PvuII endonuclease was not detectible (data not shown). It is clear that, compared to K93R, these K93R variants show an increase in specific cleavage activity at CAATTG and […], while maintaining similar levels of cleavage activity at CAGCTG.

In another series the target is T5, PvuII K93R/R105H (UniProt P23657 P23657:1-157, K93R/R105H).
T5 sequence: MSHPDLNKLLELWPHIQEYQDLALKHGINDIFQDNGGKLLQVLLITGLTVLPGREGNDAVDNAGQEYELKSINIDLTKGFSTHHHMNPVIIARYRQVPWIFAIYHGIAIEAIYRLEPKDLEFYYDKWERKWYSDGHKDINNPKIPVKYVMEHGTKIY
In words: cleavage_in_vitro; NEB buffer 2, 37 C, 1.5 h. Particulars: tags: His-tag; chain copies: 2 inferred.
Description: as §1

The target of a further series is T6, PvuII K93R/V50A (UniProt P23657 P23657:1-157, K93R/V50A).
T6 sequence: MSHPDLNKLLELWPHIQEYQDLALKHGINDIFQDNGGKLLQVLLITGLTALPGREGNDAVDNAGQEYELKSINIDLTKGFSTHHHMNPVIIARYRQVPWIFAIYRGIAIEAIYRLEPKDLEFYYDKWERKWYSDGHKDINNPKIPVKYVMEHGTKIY
Kind of series: cleavage_in_vitro; NEB buffer 2, 37 C, 1.5 h. Particulars: tags: His-tag; chain copies: 2 inferred.
Description: as §1

Series [2] addresses T7, BsoBI restriction endonuclease (UniProt P70985 P70985:1-323).
T7 sequence: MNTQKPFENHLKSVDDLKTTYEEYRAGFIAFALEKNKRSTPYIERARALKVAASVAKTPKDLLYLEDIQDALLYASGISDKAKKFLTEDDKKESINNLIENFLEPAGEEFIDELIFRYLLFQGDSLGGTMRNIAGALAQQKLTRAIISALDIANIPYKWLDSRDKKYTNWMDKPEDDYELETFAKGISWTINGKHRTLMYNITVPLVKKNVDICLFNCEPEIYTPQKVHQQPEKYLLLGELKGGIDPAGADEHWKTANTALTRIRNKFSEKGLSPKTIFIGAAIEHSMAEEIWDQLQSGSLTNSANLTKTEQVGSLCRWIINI
In words: cleavage_in_vitro; pUC19, NEB buffer 2, 65 C. Particulars: tags: untagged, expressed from pRRS-bsoBIR in E. coli ER2683; chain copies: 2 inferred.

In series [3] the target is T8, BsoBI pseudorevertant 9c (same as 11c) (UniProt P70985 P70985:1-323, R38S/L62I/D112Y/N169T/L238F/D246A/A248S).
T8 sequence: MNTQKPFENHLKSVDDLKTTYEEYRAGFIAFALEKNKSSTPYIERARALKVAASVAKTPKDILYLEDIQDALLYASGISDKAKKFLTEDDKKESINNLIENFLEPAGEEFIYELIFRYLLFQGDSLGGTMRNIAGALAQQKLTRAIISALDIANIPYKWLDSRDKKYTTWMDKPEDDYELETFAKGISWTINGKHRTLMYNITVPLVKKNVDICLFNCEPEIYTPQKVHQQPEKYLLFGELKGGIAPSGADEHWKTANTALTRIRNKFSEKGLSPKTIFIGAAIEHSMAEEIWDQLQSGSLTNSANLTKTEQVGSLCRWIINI
Kind of series: cleavage_in_vitro; pUC19, 65 C; protein temperature sensitive. To be noted: chain copies: 2 inferred.

The target of series [4] is T9, BsoBI pseudorevertant 29e (UniProt P70985 P70985:1-323, D246A/C317W).
T9 sequence: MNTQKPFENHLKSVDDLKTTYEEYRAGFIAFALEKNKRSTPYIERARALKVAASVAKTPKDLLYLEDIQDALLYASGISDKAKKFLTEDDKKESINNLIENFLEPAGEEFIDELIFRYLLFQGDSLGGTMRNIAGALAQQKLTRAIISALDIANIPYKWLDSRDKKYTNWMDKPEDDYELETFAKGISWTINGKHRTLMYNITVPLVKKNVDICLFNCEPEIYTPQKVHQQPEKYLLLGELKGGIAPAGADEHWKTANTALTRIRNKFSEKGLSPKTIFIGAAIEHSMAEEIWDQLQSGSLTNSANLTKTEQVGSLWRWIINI
In words: cleavage_in_vitro; pUC19, 65 C. To be noted: chain copies: 2 inferred.

Another series deals with T10, BsoBI pseudorevertant 8d (UniProt P70985 P70985:1-323, N36K/D246A).
T10 sequence: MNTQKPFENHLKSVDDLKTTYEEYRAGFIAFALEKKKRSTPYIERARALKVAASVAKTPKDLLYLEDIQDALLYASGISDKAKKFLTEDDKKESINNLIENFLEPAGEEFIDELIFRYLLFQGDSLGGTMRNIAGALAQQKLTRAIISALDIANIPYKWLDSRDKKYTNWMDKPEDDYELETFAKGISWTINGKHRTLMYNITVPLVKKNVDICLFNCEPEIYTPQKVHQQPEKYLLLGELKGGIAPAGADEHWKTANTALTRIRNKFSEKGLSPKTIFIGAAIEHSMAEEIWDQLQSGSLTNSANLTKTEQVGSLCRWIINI
Kind of series: cleavage_in_vitro; pUC19, 65 C. Particulars: tags: partially purified; chain copies: 2 inferred.

The target of the next series is T11, PvuII K93R (UniProt P23657 P23657:1-157, K93R).
T11 sequence: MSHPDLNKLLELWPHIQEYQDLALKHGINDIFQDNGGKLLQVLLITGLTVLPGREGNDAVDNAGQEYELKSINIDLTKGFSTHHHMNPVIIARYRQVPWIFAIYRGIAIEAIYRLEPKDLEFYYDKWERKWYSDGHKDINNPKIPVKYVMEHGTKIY
Kind of series: cleavage_in_vitro; NEB buffer 2, 37 C, 1.5 h. To be noted: tags: His-tag; chain copies: 2 inferred.
Description: as §1

Bounds are passed on as bounds.

For the molecule lambda DNA (8 BsoBI sites), the activity in the series with BsoBI D246N D246N, with BsoBI D246Q D246Q and with BsoBI D246E D246E was < 0.001 % of wt throughout.
As for “GTACCCGGGGAT (double strand) [pUC19/pZZ1 CCCGGG site]”, the activity in [1] was 4 % of wt.

B1: pTYB1 1270 bp PCR fragment, MfeI site (dsDNA)
DNA 1: CAATTG
DNA 2: CAATTG
On to B1, for which the activity with PvuII E18K/K93R/R105H is 0.03 ug protein required to cleave; with PvuII K93R/R105H, 0.1 ug protein required to cleave; with PvuII K93R/V50A, 0.1 ug protein required to cleave.

B2: pUC19/pZZ1 CCCGGG site (dsDNA)
DNA 1: GTACCCGGGGAT
DNA 2: ATCCCCGGGTAC
Regarding B2, the activity in [2] is 100 % of wt; in [3], 10 % of wt; in series [4], 4 % of wt; with BsoBI pseudorevertant 8d it was 5 % of wt.

B3: pUC19 1042 bp PCR fragment, unique PvuII site (dsDNA)
DNA 1: CAGCTG
DNA 2: CAGCTG
With B3, the activity in the series with PvuII E18K/K93R/R105H is 0.03 ug protein required to cleave; with PvuII K93R, 0.03 ug protein required to cleave; in the series with PvuII K93R/R105H it was 0.01 ug protein required to cleave; with PvuII K93R/V50A it was 0.01 ug protein required to cleave.
